Measurements as given in IntAct's records for PubMed 20562859.

Target: T1, fnip1_human FNIP1 (UniProt Q8TF40)
T1 sequence: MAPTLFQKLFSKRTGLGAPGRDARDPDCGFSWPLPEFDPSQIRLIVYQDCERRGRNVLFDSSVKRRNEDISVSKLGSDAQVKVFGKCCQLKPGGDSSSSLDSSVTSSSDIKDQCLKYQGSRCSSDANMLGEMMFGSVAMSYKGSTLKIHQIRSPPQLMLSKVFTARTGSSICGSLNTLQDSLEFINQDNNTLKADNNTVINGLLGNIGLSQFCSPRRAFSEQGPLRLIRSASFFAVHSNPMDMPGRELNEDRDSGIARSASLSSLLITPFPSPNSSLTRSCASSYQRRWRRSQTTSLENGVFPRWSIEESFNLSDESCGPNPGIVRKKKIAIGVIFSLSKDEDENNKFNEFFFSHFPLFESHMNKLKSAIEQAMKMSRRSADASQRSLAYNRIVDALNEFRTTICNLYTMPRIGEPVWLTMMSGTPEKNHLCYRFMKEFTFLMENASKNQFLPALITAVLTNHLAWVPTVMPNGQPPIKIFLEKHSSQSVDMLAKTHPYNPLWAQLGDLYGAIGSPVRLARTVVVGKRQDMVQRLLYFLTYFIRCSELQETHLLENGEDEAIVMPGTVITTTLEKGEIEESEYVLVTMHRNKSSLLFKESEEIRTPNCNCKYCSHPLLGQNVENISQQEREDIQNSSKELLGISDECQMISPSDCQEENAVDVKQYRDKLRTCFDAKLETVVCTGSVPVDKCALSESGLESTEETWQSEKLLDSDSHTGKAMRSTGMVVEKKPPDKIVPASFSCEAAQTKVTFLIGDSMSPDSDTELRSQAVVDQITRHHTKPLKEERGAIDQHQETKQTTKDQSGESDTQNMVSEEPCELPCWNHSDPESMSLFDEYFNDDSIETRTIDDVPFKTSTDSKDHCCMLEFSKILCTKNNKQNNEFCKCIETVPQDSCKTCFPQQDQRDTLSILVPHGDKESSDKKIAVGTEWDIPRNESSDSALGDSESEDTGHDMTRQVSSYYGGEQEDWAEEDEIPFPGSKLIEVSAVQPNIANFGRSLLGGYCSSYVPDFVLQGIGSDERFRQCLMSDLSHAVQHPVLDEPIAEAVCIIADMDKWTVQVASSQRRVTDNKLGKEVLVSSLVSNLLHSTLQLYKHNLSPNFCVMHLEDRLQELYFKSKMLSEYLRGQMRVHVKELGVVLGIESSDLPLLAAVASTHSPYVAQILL

effect of a mutation on the interaction: increasing interaction
Substance: Microtubule-associated protein 1 light chain 3 beta (Homo sapiens) (from UniProt Q9GZQ8) F52A;L53A
